# How the values were obtained:
# heparanase = target: T1, heparanase (Homo sapiens, UniProt Q9Y251); assay: Intracellular heparanase content of heparanase-transfected 293 cells (immunofluorescence, immunoblot); format: cell-based; conditions: cells over-expressing heparanase grown with mAb for two days
# T1 sequence (Q9Y251 36-543): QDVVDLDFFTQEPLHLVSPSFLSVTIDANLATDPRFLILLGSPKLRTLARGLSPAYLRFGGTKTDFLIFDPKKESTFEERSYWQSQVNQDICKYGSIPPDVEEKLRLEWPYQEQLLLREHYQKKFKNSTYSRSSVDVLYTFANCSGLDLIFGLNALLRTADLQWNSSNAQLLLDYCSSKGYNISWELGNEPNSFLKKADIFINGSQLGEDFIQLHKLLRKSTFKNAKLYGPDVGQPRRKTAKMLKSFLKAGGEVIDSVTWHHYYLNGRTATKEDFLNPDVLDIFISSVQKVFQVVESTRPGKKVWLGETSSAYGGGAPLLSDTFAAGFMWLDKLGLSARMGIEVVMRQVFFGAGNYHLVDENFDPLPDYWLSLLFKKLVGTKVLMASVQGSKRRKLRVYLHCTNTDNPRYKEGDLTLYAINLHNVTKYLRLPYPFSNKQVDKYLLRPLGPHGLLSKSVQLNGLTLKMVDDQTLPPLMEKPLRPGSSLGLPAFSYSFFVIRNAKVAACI
# Protocol: FIG. 3A. HEK 293 cells were incubated with latent 65 kDa (upper panel) or GS3 constitutively active heparanase (1 μg/ml; third panel) and the indicated mAbs (10 μg/ml). The cell medium was aspirated at the time designated and cell lysates were subjected to immunoblotting applying anti-heparanase antibody (upper and third panels). […] Heparanase-transfected 293 cells were grown with control mouse IgM or mAb 9E8 for two days. Cells were then fixed with methanol and subjected to immunofluorescent staining applying anti heparanase antibody (second panel) or lysed and subjected to immunoblotting applying anti-heparanase antibody (fourth panel). Purified recombinant active heparanase (200 ng) was pre-incubated with control mouse IgM ( ? ), mAb 8A5 ( ? ), mAb 9E8 ( ? ), all at 2 μg/ml, for 2 h in serum-free RPMI medium on ice. The mixture was then applied onto ^35S-labeled ECM-coated dishes and heparanase activity was determined as described above (lower panel). FIG. 3B, C. ESb mouse T-lymphoma cells (5×10^5) were inoculated subcutaneously in NOD/SCID mice (n=5) and treated with PG545 (20 mg/kg, once a week) (B) or the indicated mAb (500 μg/mouse every other day) (C). FIG. 3C. […] Quantification of the extent of CD45 staining is shown graphically in the lower panel. […]
# lymphoma cells = assay: Lymphoma cell death, propidium iodide FACS; format: cell-based; conditions: 50 μg/ml, 24 h
# Protocol: FIG. 6A. CAG myeloma. NOD/SCID mice (n=5) were inoculated (iv) with CAG-luciferase cells (5×10^6) and mice were treated with mAb 9E8 (600 μg/mouse every other day). Tumor growth was evaluated by IVIS imaging (left panels). Quantification of luciferase signals is shown graphically in the right panel. Note 2-3 fold decrease in tumor growth by the heparanase-neutralizing mAbs. FIG. 6B. Bone marrow was harvested from C57Bl/6 mice, cells were collected by centrifugation and heparanase activity was determined as described under ‘Materials and Methods’ (left panel). Corresponding bones were fixed in formalin and following de-calcification were subjected to immunostaining applying anti-heparanase antibody (right panel). FIG. 6C. The indicated cell line (0.25×10^6) was treated with antibodies 1453or 9E8 (50 μg/ml) for 24 h. Cells were then washed once with FACS buffer (PBS containing 2% FCS), incubated with Propidium Iodide (PI; 1 μg/ml) for 10 min and analyzed using FACS Cyan ADP system (Beckman Coulter, Inc). PI-positivity indicates a disturbed membrane and cell death.
# Raji-luciferase cells = assay: Raji-luciferase lymphoma, tail vein inoculation, bone marrow growth by IVIS imaging; format: in vivo, human; conditions: mAb 600 μg/mouse every other day, IVIS
# Protocol: Tumorigenicity. Luciferase-labelled CAG myeloma (5×10^6) or Raji lymphoma (1×10^6) cells were injected into the tail vein of NOD/SCID mice (n=5). Mice were treated with PG545 (20 mg/kg, once weekly), mAb 9E8 (600 μg/mouse) every other day starting one day following cell inoculation and tumor growth was examined by IVIS imaging. At termination, mice were sacrificed, the backbones were excised, fixed in formalin and following de-calcification with 10% EDTA solution were embedded in paraffin and subjected to histological and immunohistochemical analyses essentially as described (Weissmann et al, 2016, Proc Natl Acad Sci USA 113:704-709). Dose of 25-30 mg/kg (i.e., 500-600 μg mAb/mouse) is typical in cancer restraining experiments (Van Looy T, et al. 2015, Transl Oncol 8(2):112-118).
# IVIS imaging. Bioluminescent imaging of the luciferase-expressing tumors was performed with a highly sensitive, cooled charge coupled device (CCD) camera mounted in a light-tight specimen box (IVIS; Xenogen Corp., Waltham, Mass.). Briefly, mice were injected intraperitoneally with D-luciferin substrate at 150 mg/kg, anesthetized and placed onto a stage inside the light-tight camera box, with continuous exposure to isoflurane (EZAnesthesia, Palmer, Pa.). Light emitted from the bioluminescent cells was detected by the IVIS camera system with images quantified for tumor burden using a log-scale color range set at 5×10^4 to 1×10^7 and measurement of total photon counts per second (PPS) using Living Image software (Xenogen) (Weissmann et al, 2016, Proc Natl Acad Sci USA 113:704-709).
# FIG. 4A. Raji-luciferase cells (1×10^6) were injected into the tail vein of NOD/SCID mice (n=5). Mice were treated with PG545 (20 mg/kg once a week) starting one day after cell inoculation and IVIS imaging was applied to quantify tumor load. […] NOD/SCID mice (n=5) were inoculated (iv) with Raji-luciferase cells and mice were treated with mAb 9E8 (600 μg/mouse every other day) (FIG. 4C) and tumor growth was evaluated by IVIS imaging (left panels). Quantification of luciferase signals is shown graphically in the right lower panel.
molecule,measurement,setting,value
"mAb 9E8: monoclonal IgM raised against KKDC peptide (Lys158-Asn171) of heparanase; VH SEQ ID NO: 7, VL SEQ ID NO: 8 (antibody, IgM constant regions) VH: EVKLLESGGGLVQPGGSLKLSCAASGFDFSRYWMSWVRQAPGKGLEWIGEINPDSSTINYTPSLKDKFIISRDNAKNTLYLQMSKVRSEDTALYYCARRGYEGNYAMDYWGQGTSVTVSSESQSFPNVFPLVSCESPLSDKNLVAMGCLAR VL: DIVMTQAAPSVPVTPGESVSISCRSSKSLLHSNGNTYLYWFLQRPGQSPQLLIYRMSNLASGVPDRFSGSGSGTAFTLRISRVEAEDVGVYYCMQHLEYPFTFGSGTKLEIKRADAAPTVSIFPPSSEQLTSGGASVVCFL",intracellular content of heparanase,heparanase,marked decrease
same,lymphoma cell death (PI-positivity),lymphoma cells,do not elicit lymphoma cell death
same,decrease of Raji cell growth (luciferase signal),Raji-luciferase cells,2-3 fold

# — patent US11161912B2, “Heparanase-neutralizing monoclonal antibodies” (Technion Research & Development Foundation Limited, priority 2015, dated 2021)
